Measurements taken from patent US20220218614A1, “IONIZABLE CATIONIC LIPIDS AND LIPID NANOPARTICLES, AND METHODS OF SYNTHESIS AND USE THEREOF” (Tidal Therapeutics, Inc., priority 2020, published 2022).

What was measured:
Type in all cases: cell-based
[1] = tested on: primary human T cells; assay: LNP transfection of co-cultured human T cells and NK cells: T cells; conditions: Lipid 8 LNP, 2.5 ug/mL mRNA, 24 hours
Method: Primary human T cells were purified using magnetic-based CD3 negative selection. 20 million purified T cells were activated using anti-CD3/anti-CD28 coated beads for 48 hours in media containing 100 IU/mL IL-2. Following activation, activation beads were removed, and T cells were expanded for an additional 48 hours in media containing 100 IU/mL IL-2. After the expansion period, T cells were concentrated to 1 million cells/mL in preparation for co-transfection with primary human NK cells.
LNPs were prepared using the mixing process described in Example 6, the buffer exchange process described in Example 25. […]
(§1) 24 hours after LNP transfection, cell culture media was aspirated from T cell and NK cell co-cultures after centrifugation. […] Following acquisition by flow cytometry, T cells and NK cells were analyzed independently using FlowJo (flow cytometry analysis software). In either CD3+ cells (T cells) or CD56+ cells (NK cells), the frequency of GFP positive events relative to GFP negative events was calculated (FIG. 64A). Additionally, the overall fluorescence of GFP was quantified by assessment of mean fluorescence intensity (MFI, FIG. 64B). […] Together, these metrics enabled quantification of LNP transfection efficiency of all targeted LNPs tested in primary human T cell and NK cell co-cultures.

[2] = tested on: primary human NK cells; assay: LNP transfection of co-cultured human T cells and NK cells: NK cells; conditions: Lipid 8 LNP, 2.5 ug/mL mRNA, 24 hours
Method: CD3-depleted PBMCs were purified using magnetic-based CD3 positive selection and retaining of the negative fraction. 20 million CD3 depleted PBMCs were added to 1 well of a 6 well GREX plate in media containing 10 ng/mL IL-15 for 7 days. On day 7, each well was split in 2 and cells were cultured further in media containing 10 ng/mL IL-15 for an additional 7 days. On day 14, NK cells were concentrated to 1 million cells/mL in preparation for co-transfection with primary human T cells.
LNPs were prepared using the mixing process described in Example 6, the buffer exchange process described in Example 25. The LNPs were formulated using eGFP encoding mRNA (TriLink Biotechnologies, California, US), Lipid 8 as the ionizable lipid, and labeled with 0.01 mol % DiIC18(5)-DS (Invitrogen, Massachusetts, US). Fab-lipid conjugates generated from methods described in Example 4 while generation of Nb-conjugated differed in using 1:1:4 Nb:DSPE-SKPEG-maileimide:DSPE-2KPEG-OCH3 and a 50 kD UF membrane (Millipore Corp, Billerica, Mass. USA) for separation of Nb-conjugate from free Nb. Using methods similar to Example 12, conjugated Fabs and conjugated Nb were post-inserted at various densities (Table 41) into LNPs containing Lipid 8 and GFP mRNA with DiI dye. […]. […]
as §1

[3] = tested on: human whole blood; assay: Whole blood transfection of immune cells with Fab targeted mRNA LNPs; conditions: Lipid 8 LNP, 2.5 μg/mL mCherry mRNA, 24 hours
Method: Venous blood from healthy volunteers was anti-coagulated in heparin tubes (BD Biosciences #367526) and seeded at 50 μL in a 96-well round-bottom plate. Transfection of whole blood was carried out simply by adding nanoparticles containing 5 μg/mL mRNA to the cells and co-culturing at 37° C. until the time of analysis. To assess transfection efficiency, cells were analyzed 24-hours post-transfection by flow cytometry. LNPs used (with and without post-inserted targets) at 2.5 μg/mL:RDM073.23. Cells obtained from human blood were analyzed by flow cytometry. Prior to the analysis of whole blood transfection efficiency, red blood cells were lysed twice with VersaLyse Lysing Solution (Beckman Coulter #A09777) for 10 minutes at room temperature. […]
Compensation for each fluorochrome was performed in the multicolor flow panels using positive and negative compensation beads. Fluorescence minus one (FMO) samples and unstained controls were included to determine the level of background fluorescence and to set the gates for the negative cell populations versus the positive cell populations.
All samples were acquired on a BD LSRFortessa X-20 (BD Biosciences) running […] software (Becton Dickinson). All data collected were analyzed using FlowJo 10.7.1 software and GraphPad Prism version 9.0. […]

B1: mutOKT8: non-functional mutated OKT8 Fab, SEQ ID NO: 22 and 23 (antibody)
heavy: QVQLVQSGAEDKKPGASVKVSCKASGFNIKDTYIHWVRQAPGQGLEWMGRIDPANDNTLYASKFQGRVTITADTSSNTAYMELSSLRSEDTAVYYCGRGAGAYVFDHWGQGTTVTVSSASTKGPSVFPLAPSSKSTSGGTAALGCLVKDYFPEPVTVSWNSGALTSGVHTFPAVLQSSGLYSLSSVVTVPSSSLGTQTYICNVNHKPSNTKVDKKVEPKSSDKTHTC
light: DIVMTQSPSSLSASVGDRVTITCRTSRSISAALAWYQEKPGKAPKLLIYSGSTLQSGVPSRFSGSGSGTDFTLTISSLQPEDFATYYCQQHNENPLTFGQGTKVEIKRTVAAPSVFIFPPSDEQLKSGTASVVCLLNNFYPREAKVQWKVDNALQSGNSQESVTEQDSKDSTYSLSSTLTLSKADYEKHKVYACEVTHQGLSSPVTKSFNRGES
With B1 the “transfection of T cells in T/NK co-culture (% GFP, GFP MFI, DiI), in words” value [1] was “high % DiI and % GFP”, the “transfection of NK cells in T/NK co-culture (% GFP, GFP MFI, DiI), in words” value [2] was “high % DiI and % GFP” and the “% mCherry+ cells (transfection) in whole blood, in words” value [3] was “did not exhibit transfection of any of the immune cell types”.
